Results on six molecules are retold here after US20150018283A1.

For test [1], the target named is N-type calcium channels in cultured mouse dorsal root ganglion (DRG) neurons (Swiss mice) (UniProt O55017). The test is described as follows: cell-based or functional assay.
Test [2] deals with N-type Ca channels (receptor binding screen of Example 1).
A further test deals with IL-8RB (UniProt P25025). The test is described as follows: competitive radioligand binding; 10 µM unlabelled Tat-NR2B9c; competitor labeled IL-8.
IL-8RB, sequence (P25025 whole entry): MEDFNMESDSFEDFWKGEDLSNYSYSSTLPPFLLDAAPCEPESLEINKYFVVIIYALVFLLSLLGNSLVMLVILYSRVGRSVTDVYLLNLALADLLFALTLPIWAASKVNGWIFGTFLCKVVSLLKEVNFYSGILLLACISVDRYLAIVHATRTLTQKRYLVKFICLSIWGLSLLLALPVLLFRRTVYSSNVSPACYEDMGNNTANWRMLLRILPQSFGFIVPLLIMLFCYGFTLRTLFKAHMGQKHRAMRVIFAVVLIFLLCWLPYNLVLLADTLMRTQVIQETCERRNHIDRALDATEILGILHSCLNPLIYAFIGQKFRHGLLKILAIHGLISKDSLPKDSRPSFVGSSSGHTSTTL

As to 1992 Tat-NR2B9c-AA (peptide), in test [1], the Ca^2+ current shown as a percentage, peptide at 100 µM came to 74%.

Regarding Tat-NR2B9c (peptide), the results for the % inhibition of labeled ligand binding (in test [2]; with IL-8RB) were 100% and 80%, respectively.

1990 TAT (peptide): in test [1], the Ca^2+ current shown as a percentage, peptide at 100 µM turned out to be 57%.

Consider 1993 F-Tat-NR2B9c (peptide), for which the Ca^2+ current shown as a percentage, peptide at 100 µM in test [1] stood at 91%.

Turning to 1987 D-Tat-NR2B9c (peptide), the Ca^2+ current shown as a percentage, peptide at 100 µM in test [1] stood at 82%.

As to KLSSIESDV [1991 2B9c], the Ca^2+ current shown as a percentage, peptide at 100 µM in test [1] came out at 94%.
